Here are results for 32 sequences from the supplement of paper PMC9170038.

In this data set the test system is MS2 coat protein. Kind of data set: apparent KD of MS2 coat protein; designed switch direction (-1 OFF switch, 1 ON switch): -1; higher = weaker reporter binding. Summed up: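 Designed RNA switches with common flanks were made on Illumina chips by stalled E. coli RNA polymerase. Titration with SNAP-549-labelled MS2 coat protein doubled from 0.7 or 1.5 nM up to 3 µM. Apparent KD is each design's median over clusters after curve-fitting normalised fluorescence.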

The mark [1] stands for this setting: input ligand: microRNA oligo, concentration not stated.
Setting [2] is: Eterna round: R95, input ligand: FMN 200 uM.
[3] abbreviates: Eterna round: R95, input ligand: microRNA oligo, concentration not stated.
Where [4] appears, read: Eterna round: R95, input ligand: none.

In the case of “AUUAUAUAGAUAGGAUAUUGAUUAUUAUUUUAACAUGAGGAUCACCCAUGUAGCCUUAUGUAUAACAAGAAGGAUCAUUUAUUA [Title] (Eterna round: R96, puzzle: Exclusion NG 2)”, the “apparent KD of MS2 coat protein” value under setting [1] was determined as 137 nM.

As to “UUACGGCGGAGAGGAUAUCCGAAAGGAAGUGUAGGAGAAGGCUCCAGUUGUACAUGAGGAUCACCCAUGUGAUCCUUUCCGAAA [PowerStrip EXNG 1.25] (Eterna round: R96, puzzle: Exclusion NG 1)”, the “apparent KD of MS2 coat protein” value stood at 2040 nM (input ligand: FMN 200 uM), 79.7 nM under setting [1] and 126 nM (input ligand: none).

Regarding “AGUACUAACACGUGUGUGUUAGUACAAUAAGCUUGUGAAACAUGAGGAUCACCCAUGUCCUCAUAAGCUCGUCUUAU [salish99_TOv2_r3_074] (puzzle: Sensor v3, turn-off variant 2)”, the “apparent KD of MS2 coat protein” value under setting [2] is 16.1 nM, the “apparent KD of MS2 coat protein” value under setting [3] was 813 nM and the “apparent KD of MS2 coat protein” value under setting [4] turned out to be 15 nM.

Turning to “AAAACGUCAGGAUAUCCAAUAUAUGACAUGAGGAUCACCCAUGUUUCCACUCGUACCUCCGGAGAAGGGACUAAUA [Ex5 #84] (Eterna round: R97, puzzle: Exclusion 5)”, the “apparent KD of MS2 coat protein” value came out at 34.7 nM (input ligand: FMN 200 uM) and 38.2 nM (input ligand: none).

“UAAUAAAAGGAGGAUAUCGUAUCGGAAACGAUACGAGAAGGCUUAACAUGAGGAUCACCCAUGUUCCUCAAUAA [Mat - Exclusion 6 - Eli Mod - D90] (puzzle: Exclusion 6)”: the “apparent KD of MS2 coat protein” value worked out at 59.3 nM under setting [2], 28.6 nM under setting [3] and 32.6 nM under setting [4].

For “GAACUGAGGCUUUGCUUUAGUCGUACAUGAGGAUCACCCAUGUAGGAUAUGGUAGGCUUUGCUUACCAGAAGGACAGAGUGAUC [JL EXNG3 1.21] (Eterna round: R96, puzzle: Exclusion NG 3)”, the “apparent KD of MS2 coat protein” value reads like this: (input ligand: FMN 200 uM) 52.9 nM; under setting [1], 192 nM; (input ligand: none) 195 nM.

Consider “GAAAAUGUGGAGGAUAUCGACUUCGAAAGAAGUCGAGAAGGCCACACAUGAGGAUCACCCAUGUGUUGCUUAUA [Omei Ex6 H7] (Eterna round: R97, puzzle: Exclusion 6)”, for which the “apparent KD of MS2 coat protein” value (input ligand: FMN 200 uM) was determined as 20.7 nM and the “apparent KD of MS2 coat protein” value (input ligand: none) came out at 16 nM.

As for “GCUGGUCGAGGAUAUACAAUCGUGCUUCGGCACGUAAGGUCACAUGAGGAUCACCCAUGUAGAAGGCGACCAGC [E2/2-A2] (Eterna round: R97, puzzle: Exclusion 2)”, the “apparent KD of MS2 coat protein” value reads like this: (input ligand: FMN 200 uM) 175 nM; (input ligand: none) 30.9 nM.

Consider “CUUAAUUGUCAGAUGGGUGACAUGAGGAUCACCCAUGUCACAAGCUUUUUGCUCGUCUUAUAAUUAACCCAUCUGAC [Stov1/11-A4] (Eterna round: R97, puzzle: Sensor, turn-off variant 1)”, for which the “apparent KD of MS2 coat protein” value by setting is: (input ligand: FMN 200 uM) 13.5 nM; (input ligand: none) 13.4 nM.

For “GCCCAGUUAGGAUAUACAUGUCACGUCCUAACGGUCGAAGGACAUGAGGAUCACCCAUGUAGAAGGGACCGGCA [Onraonbe] (Eterna round: R97, puzzle: Exclusion 2)”, the “apparent KD of MS2 coat protein” value reads like this: (input ligand: FMN 200 uM) 17.7 nM; (input ligand: none) 21.2 nM.

As to “UUUGUCUGUGUGAGGAUAUACUUUUUUUGGUUUUUGUAGAAGGCACAUGAGGAUCACCCAUGUAUUUUGUUGUG [JR_BME4_Sub016] (puzzle: Brourd's mod of Exclusion 4)”, under setting [3], the “apparent KD of MS2 coat protein” value turned out to be 31.1 nM.

Turning to “GCUGGUCGAGGAUAUACAUGAGGAUCACCCAUGUAGAUCAACCAGCUUCGGCUGGAAUGUAGAAGGCGACCAGC [E3/5-A4] (Eterna round: R97, puzzle: Exclusion 3)”, the “apparent KD of MS2 coat protein” value (input ligand: FMN 200 uM) was 117 nM and the “apparent KD of MS2 coat protein” value (input ligand: none) was 19.5 nM.

Turning to “GAAAACGCAGAGGAUAUUUCAGAUCAAAGCUGCAAAGAAGGCUGCACAUGAGGAUCACCCAUGUGGUCUUAAAA [Mod of Quesina 2 - Jieux - Exclusion 6] (Eterna round: R97, puzzle: Exclusion 6)”, the “apparent KD of MS2 coat protein” value runs as follows: (input ligand: FMN 200 uM) 337 nM; (input ligand: none) 23.8 nM.

Consider “UUCUUGCAAGGAUAUGAUUUAAGUAACAUGAGGAUCACCCAUGUUUUUCCGUUGUUAUGUUCAGAAGGUGCGUGAU [JR_E5_Sub021] (puzzle: Exclusion 5)”, for which the “apparent KD of MS2 coat protein” value under setting [3] was found to be 54.2 nM.

For “GGAUAAAACUGAGGAUAUGCGUAUCGCUAGCGAGCAGAAGGCAGACAUGAGGAUCACCCAUGUGAGUUCUCGAUAAGAAACACG [Prohibition 59 - Jieux - Exclusion NG 1] (Eterna round: R96, puzzle: Exclusion NG 1)”, the “apparent KD of MS2 coat protein” value (input ligand: FMN 200 uM) was 145 nM, the “apparent KD of MS2 coat protein” value under setting [1] worked out at 54.8 nM and the “apparent KD of MS2 coat protein” value (input ligand: none) is 57.7 nM.

Turning to “UUUUAGUAAGGAUAUGGUUAGAUCUACUUCGGUAGAUCUAACCAGAAGGUACAUGAGGAUCACCCAUGUAGAUA [Mod of Brourd 19 - Jieux - Exclusion 4] (Eterna round: R97, puzzle: Exclusion 4)”, the “apparent KD of MS2 coat protein” value (input ligand: FMN 200 uM) turned out to be 25.2 nM and the “apparent KD of MS2 coat protein” value (input ligand: none) was 25.3 nM.

Regarding “CUGUAGUCAGGAUAUACAUGAGGAUCACCCAUGUAAAAUUUUAAUUUAAUUUGAAGGUGUAGAAGGGACCAGUC [Ex3 #26] (Eterna round: R97, puzzle: Exclusion 3)”, the “apparent KD of MS2 coat protein” value runs as follows: (input ligand: FMN 200 uM) 30.1 nM; (input ligand: none) 38.5 nM.

Regarding “GGGCCCGGAGGAUAUACAAUUUUGGGCCGAAAGGCCCGGGUACAUGAGGAUCACCCAUGUAGAAGGCCGGGCCC [-41.7, -39.1 kcal A 24%, 5a,0] (Eterna round: R97, puzzle: Exclusion 2)”, the “apparent KD of MS2 coat protein” value by setting is: (input ligand: FMN 200 uM) 134 nM; (input ligand: none) 32.4 nM.

For “AGUAGGUCUACCUUGGUGGAUCUGCAUAAAGCAAGUGAAACAUGAGGAUCACCCAUGUCCUCAUUUGCUCGUCUUAU [JL turnoff v2 99.20] (puzzle: Sensor v3, turn-off variant 2)”, the “apparent KD of MS2 coat protein” value under setting [2] was 14.8 nM, the “apparent KD of MS2 coat protein” value under setting [3] turned out to be 634 nM and the “apparent KD of MS2 coat protein” value under setting [4] turned out to be 13 nM.

For the sequence “ACAUGAGGAUCACCCAUGUACUGGGUUUAGUUUCAUCGUUUGAAGGAUAUACUCCGUUAGUUGUCGUAGAAGGUCACAGUUUGG [JR_ExcNG3_Sub008] (Eterna round: R96, puzzle: Exclusion NG 3)”, the “apparent KD of MS2 coat protein” value was 457 nM (input ligand: FMN 200 uM), 407 nM under setting [1] and 517 nM (input ligand: none).

As for “AGGUGGAAGCAGGAUAUGCUAGAAGUGUAGAAUGCAGAAGGGCUAACAUGAGGAUCACCCAUGUAAGAGGUGUA [JR_E6_Sub051] (puzzle: Exclusion 6)”, the “apparent KD of MS2 coat protein” value was determined as 383 nM under setting [2], 200 nM under setting [3] and 236 nM under setting [4].

For “ACCUCACAUGAGGAUCACCCAUGUUAGGAUAUCUCGGCGCCCUGCAGGCAGUGGCACCAGAGAAGGAACGUGCA [Xeindiisti] (puzzle: Exclusion 1)”, the “apparent KD of MS2 coat protein” value under setting [3] turned out to be 20.4 nM.

On to “CGUCUGUGAGGAUAUGGUAUCGUUUACAUGAGGAUCACCCAUGUUACAUGGGACUAGAGACUAGAAGGUACGGACG [EX5 #48] (Eterna round: R97, puzzle: Exclusion 5)”, for which the “apparent KD of MS2 coat protein” value came out at 461 nM (input ligand: FMN 200 uM) and 391 nM (input ligand: none).

On to “GCAAGCGACUAGGCUCGUCUUAUAUUGAAAAGAUUGAAAACAUGAGGAUCACCCAUGUAUGUGGGAGAGUUGAAGUG [JR_SV3TOV2_Sub011] (puzzle: Sensor v3, turn-off variant 2)”, for which the “apparent KD of MS2 coat protein” value under setting [2] was found to be 286 nM, the “apparent KD of MS2 coat protein” value under setting [3] came to 395 nM and the “apparent KD of MS2 coat protein” value under setting [4] came out at 310 nM.

Regarding “GGGAACGUAGGAUAUACAUGAGGAUCACCCAUGUGAGGAAGGAGUAGGAAGCGUGGAAGUAGAAGGACGGAGAG [JR_Exclu3_Sub074] (puzzle: Exclusion 3)”, the “apparent KD of MS2 coat protein” value runs as follows: under setting [2], 40.6 nM; under setting [3], 31.5 nM; under setting [4], 46.4 nM.

On to “GAGAAGGUAGGAUAUACGAAUAAAAAGGGUAGAAGAAGAACACAUGAGGAUCACCCAUGUAGAAGGACCAAGAG [Mat - Exclusion 2 - Mod of my Tesla design - D22] (puzzle: Exclusion 2)”, for which the “apparent KD of MS2 coat protein” value is, setting by setting: under setting [2], 44 nM; under setting [3], 17.2 nM; under setting [4], 17.6 nM.

As to “UACUACGCAGGAUAUACAUGAGGAUCACCCAUGUGUCUGCGAUAGGCACGUGAAAUCCGUAGAAGGGUGUAGAU [Exclusion 3 - Oddities v.2] (puzzle: Exclusion 3)”, the “apparent KD of MS2 coat protein” value under setting [3] was determined as 35.9 nM.

“AAAUCGGAGGAGGAUAUGGUACAGGAAACGGUGCCAGAAGGUUUCACAUGAGGAUCACCCAUGUCAAAUAGCGA [EX6 #59] (Eterna round: R97, puzzle: Exclusion 6)”: the “apparent KD of MS2 coat protein” value was found to be 21.3 nM (input ligand: FMN 200 uM) and 20.3 nM (input ligand: none).

As to “CUUUUGUGAGGAUAUCAGUAGUAAAAUAAUAAUAUUACUACUGAGAAGGCACAUGAGGAUCACCCAUGUUCCUC [Fiskers Ex 4 Super stable 44 mod 1] (puzzle: Exclusion 4)”, the “apparent KD of MS2 coat protein” value under setting [3] turned out to be 39 nM.

As to “GAAAAGGUAGGAUAUACAAAAAAAAAGGGUAGAAAAAAAACACAUGAGGAUCACCCAUGUAGAAGGACCAAAAG [salish99_ex2_r3_057] (puzzle: Exclusion 2)”, the “apparent KD of MS2 coat protein” value reads like this: under setting [2], 83.7 nM; under setting [3], 37 nM; under setting [4], 25.9 nM.

For “AAAAAACAAGGAUAUACGAAGGAUGGUUAUCUUAAUUUUUGACAUGAGGAUCACCCAUGUAGAAGGUGUUAAAA [JR_Exclusion2_Sub010] (puzzle: Exclusion 2)”, under setting [3], the “apparent KD of MS2 coat protein” value was determined as 34.8 nM.

On to “GUUUUCAGACGGAGAUCCUACAUGAGGAUCACCCAUGUCUCACUAGCUUUUUGCUCGUCUUAUCCUCCUCUGUUCUC [Elimod 28 - Jieux - Sensor, turn-off variant 1] (Eterna round: R97, puzzle: Sensor, turn-off variant 1)”, for which the “apparent KD of MS2 coat protein” value reads like this: (input ligand: FMN 200 uM) 336 nM; (input ligand: none) 460 nM.
